For four substances, Kd results are on record in article PMC10274944.

For this experiment, the target named is GST-tagged MERS-CoV papain-like protease (PLpro) (MERS-CoV) (UniProt K9N7C7). Description: BLI. For orientation: BLI is a label-free optical method that tracks binding on a fibre tip over time.
One may read the Kd as the free concentration of one partner at which half of the binding sites on the other are occupied at equilibrium, for simple one-to-one binding. Low values mean a tighter complex, high ones a looser complex. For “ubiquitin variant A46F-K48E-G75R (from UniProt P0CG48 1-76) (designed binder)”, the Kd was found to be 11400 nM.
The result for “ubiquitin variant A46F-K48E-E64Y-R74N-G75S (UbV5) (from UniProt P0CG48 1-76) (designed binder)” reads 1.48 nM.
Consider “ubiquitin variant A46F-K48E-E64Y (UbV3) (from UniProt P0CG48 1-76) (designed binder)”, for which the Kd amounted to 2.77 nM.
“ubiquitin variant A46F-K48E (UbV2) (from UniProt P0CG48 1-76) (designed binder)” returned a Kd of 220 nM.
